The chains are these.
B1: TPR 5TU (parent)
chain: GGAUCUUCUCGAUCUAACAAAAAAGACAAAUCUGCCACAAAGCUUGAGAGCAUCUUCGGAUGCAGAGGCGGCAGCCUUCGGUGGCGCGAUAGCGCCAACGUUCUCAACUAUGACACGCAAAACGCGUGCUCCGUUGAAUGGAGUUUAUCAUG

This sample holds only a part of the variants without activity.

This data set covers variants of B1. Put plainly: polymerase ribozyme fitness, log enrichment relative to wild type (log ratio); higher = more active; in vitro selection for triplet polymerase activity. In a few lines: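 To select mutant libraries of each subunit of a heterodimeric triplet polymerase ribozyme, built by PCR and transcribed, each was annealed with a biotinylated primer, partner subunit and triplets, then incubated frozen at −7 °C. Extended constructs were gel-excised, captured on streptavidin beads and amplified by RT-PCR, in one round carried out in triplicate. Illumina sequencing of input and output libraries kept genotypes with ≥10 input reads and ≥1 read per output. Fitness is the base-2 logarithm of genotype enrichment relative to wild-type enrichment, from inverse-variance-weighted replicate averages.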
Take A41G C54A U56G C57U G84U C99G U109C U146C: the “polymerase ribozyme fitness (log ratio)” value was no more than -4.2.

Regarding A41C A49C U56A G67C C76G C87A, the “polymerase ribozyme fitness (log ratio)” value is no more than -4.2. For A41C C54U G141C the value was -1.43; for A41C G81A G92U G136U, -3.13. For A41C C57U the value was -0.124; for A40U G152A, -2.57; for A41C U44G G46C G84C C123G G128A U145A, no more than -4.2. Regarding A41U C99A A106U C118A A119G U134C, the “polymerase ribozyme fitness (log ratio)” value is no more than -4.2.

For A41G G50C, the “polymerase ribozyme fitness (log ratio)” value is -1.47. For A41U U55A A66G C93U A110G G140A the value was no more than -4.2.

On to A41C G67A, for which the “polymerase ribozyme fitness (log ratio)” value is -3.93. With A41U C85U A122G, the “polymerase ribozyme fitness (log ratio)” value is -1.39.

Take A41C C85U G112C: the “polymerase ribozyme fitness (log ratio)” value was -3.5. For A41U C72G C76U A119G U134G A142U the value was no more than -4.2; for A41G C57U A89U, 0.785; for A41G A49C U55C C69A C85U C108U, no more than -4.2. Take A41G G65A: the “polymerase ribozyme fitness (log ratio)” value is -0.45.

For A41G G70A C93U A98U, the “polymerase ribozyme fitness (log ratio)” value is -3.95. The same measure for A41U C99A A107U G117A A122U G128A: no more than -4.2; for A41C U53A: -1.22; for A41U G48U C57G C85U A120U: -3.4.

As for A41U A47C G59U U61A A66U C85G A107C U148C, the “polymerase ribozyme fitness (log ratio)” value was no more than -4.2. Turning to A41C C76A C85G C99A, the “polymerase ribozyme fitness (log ratio)” value was no more than -4.2.

Take A40U G48C A64U G83A G143A: the “polymerase ribozyme fitness (log ratio)” value was no more than -4.2.

Consider A40U G48C U53A U144G, for which the “polymerase ribozyme fitness (log ratio)” value is -2.19. For A41C G42A A49G G88C U135A the value was no more than -4.2; for A41U C57G C123A, -2.99.

A41G G86C: the “polymerase ribozyme fitness (log ratio)” value is -3.28. For A41C U53A C79A C108U A147C the value was no more than -4.2.

On to A41C G46A U82A C116G, for which the “polymerase ribozyme fitness (log ratio)” value is -3.58.

On to A41G A66C A89C G92U A97U G124U, for which the “polymerase ribozyme fitness (log ratio)” value was no more than -4.2.

For A41C U53C A122C C123A G141U U144G, the “polymerase ribozyme fitness (log ratio)” value is -3.18. The same measure for A41G U61A A113U: -2.93; for A41C G50A C96U: -1.93; for A41G U56A G58C C87A C108G G143C: no more than -4.2.

Regarding A41C U53A G58A C63U G94A A107G, the “polymerase ribozyme fitness (log ratio)” value is no more than -4.2. As to A41U G86A A89U C114U, the “polymerase ribozyme fitness (log ratio)” value was -4.16.

For A41C U55C U56A C75A G83C C131A U135C, the “polymerase ribozyme fitness (log ratio)” value is no more than -4.2. Regarding A40U G86U, the “polymerase ribozyme fitness (log ratio)” value is -1.77.

Consider A41U A47U C99G A107U, for which the “polymerase ribozyme fitness (log ratio)” value is no more than -4.2.

For A41C U82A C125A, the “polymerase ribozyme fitness (log ratio)” value was -0.821.

Consider A41C A91G G141U, for which the “polymerase ribozyme fitness (log ratio)” value was -2.56. For A41G G74C C75U C76A A91C G92U U134A G141C the value was no more than -4.2; for A40U U56G C72U A91G, -3.52.

Take A41C G59A C69A G84A A107U A137U: the “polymerase ribozyme fitness (log ratio)” value was no more than -4.2. In the case of A41C A66G G70A A91U C93U C96G, the “polymerase ribozyme fitness (log ratio)” value is no more than -4.2. For the variant A41U A52U C57U U61C, the “polymerase ribozyme fitness (log ratio)” value is no more than -4.2. For A41G C57U U109G A122U the value was -2.07; for A41C C43U A97G C108U G140U, no more than -4.2.

For the variant A41U C131G, the “polymerase ribozyme fitness (log ratio)” value was no more than -4.2. In the case of A41C G86U U90A C129A U130C G140U, the “polymerase ribozyme fitness (log ratio)” value was no more than -4.2. As for A41U A52C C76U, the “polymerase ribozyme fitness (log ratio)” value is -3.25.

Turning to A41C G58C G59C A113C U145A, the “polymerase ribozyme fitness (log ratio)” value is -4.1. The same measure for A41U C95U C99A U146G: -2.29. For A41C C87U A142G the value was -1.45. For the variant A41C G42U A73U G83U U102G G124C A150G, the “polymerase ribozyme fitness (log ratio)” value is no more than -4.2. The same measure for A41C C75U G92C A150U: -2.91; for A41G C93A A147C: -1.52; for A41C C63G G86A A115C: -2.61. In the case of A41C A66U U135A, the “polymerase ribozyme fitness (log ratio)” value was no more than -4.2.

In the case of A41U C85A, the “polymerase ribozyme fitness (log ratio)” value is -3.35.

Take A41C G50A A89U A113U A115G U146A: the “polymerase ribozyme fitness (log ratio)” value was -4.05. On to A41U C54U, for which the “polymerase ribozyme fitness (log ratio)” value was -0.75. In the case of A41G A52G C69U C93U G94C U146C, the “polymerase ribozyme fitness (log ratio)” value was -2.71. In the case of A41U A60U G84A C95G C105U A110U, the “polymerase ribozyme fitness (log ratio)” value is no more than -4.2. The same measure for A41C U53A C63U C76A: no more than -4.2; for A41C C57A G92A C93A C105U A115C G124A U144A: no more than -4.2; for A41U C123G: -1.42.

Consider A41U C54A C93A G126U, for which the “polymerase ribozyme fitness (log ratio)” value was no more than -4.2. For A41C G42A G59C G68A C95U the value was no more than -4.2; for A41G A60U A121C U144A, -1.13. In the case of A40U G46A C85A A115G A120G, the “polymerase ribozyme fitness (log ratio)” value is -4.09. Consider A41C G80U C95A, for which the “polymerase ribozyme fitness (log ratio)” value is -1.46. The same measure for A41U A89G U90C G94A A121C: no more than -4.2; for A41G C43A G59C: no more than -4.2; for A41G C103G: -1.94.

Take A40U U145A: the “polymerase ribozyme fitness (log ratio)” value is -0.163. Regarding A41G G92A C99U G126C C149A, the “polymerase ribozyme fitness (log ratio)” value was no more than -4.2.

With A41C C87U U102A U109C G136A A138U, the “polymerase ribozyme fitness (log ratio)” value was no more than -4.2.

As for A41U A49U, the “polymerase ribozyme fitness (log ratio)” value is -2.28. For the variant A40U G126C, the “polymerase ribozyme fitness (log ratio)” value was -0.388. For A41C A52C C114U the value was -3.97. The same measure for A41C A52C: -1.97. With A41C C93U, the “polymerase ribozyme fitness (log ratio)” value is -1.61.

Source of the values: the RNAGym collection of RNA variant scans (doi:10.1073/pnas.2313332121).
